Substitutions are numbered along the chain they refer to. Names and notes keep the numbering of the source.

The values that follow come from patent EP0251446B1, “Non-human Carbonyl hydrolase mutants, DNA sequences and vectors encoding same and hosts transformed with said vectors” (GENENCOR INTERNATIONAL, INC., priority 1986, dated 1988).

Format in all cases: biochemical, B. amyloliquefaciens
Substrate in series [1]: C[C@H](NC(=O)CCC(=O)O)C(=O)N[C@@H](C)C(=O)N1CCC[C@H]1C(=O)N[C@@H](CCC(=O)O)C(=O)Nc1ccc([N+](=O)[O-])cc1
Description: Kinetics of p-nitroanilide substrate hydrolysis, Q156/K166. From the text:
(§1) Wild-type subtilisin was purified from B. subtilis culture supernatants expressing the B. amyloliquefaciens subtilisin gene (Wells, J.A., et al. (1983) Nucleic Acids Res. 11, 7911-7925) as previously described (Estell, D.A., et al. (1985) J. Biol. Chem. 260, 6518-6521). Details of the synthesis of tetrapeptide substrates having the form succinyl-L-AlaL-AlaL-ProL-[X]-p-nitroanilide (where X is the P1 amino acid) are described by DelMar, E.G., et al. (1979) Anal. Biochem. 99, 316-320. Kinetic parameters, Km(M) and kcat-(s-^1) were measured using a modified progress curve analysis (Estell, D.A., et al. (1985) J. Biol. Chem. 260, 6518-6521). Briefly, plots of rate versus product concentration were fit to the differential form of the rate equation using a non-linear regression algorithm. Errors in kcat and Km for all values reported are less than five percent. The various substrates in Table VIII are ranged in order of decreasing hydrophobicity. Nozaki, Y. (1971), J. Biol. Chem. 246, 2211-2217; Tanford C. (1978) Science 200, 1012).
(§2) The multiple mutants were produced by combining fragments 1, 2 and 3 as described in Example 8. The mutants Q156/K166 and S156/K166 were selectively generated by differential phosphorylation as described. Alternatively, the double 156/166 mutants, c.f. Q156/K166 and S156/K166, were prepared by ligation of the 4.6kb Sacl-BamHI fragment from the relevant p156 plasmid containing the 0.6kb Sacl-BamHI fragment from the relevant p166 plasmid.
(§3) These mutants, the single mutant K166, and the S156 and Q156 mutants of Example 8 were analyzed for substitute specificity against synthetic polypeptides containing Phe or Glu as the P-1 substrate residue.
(§4) To isolate the contribution of electrostatics to substrate specificity from other chemical binding forces, these various single and double mutants were analyzed for their ability to bind and cleave synthetic substrates containing Glu, Gln, Met and Lys as the P-1 substrate amino acid. This permitted comparisons between side-chains that were more sterically similar but differed in charge (e.g., Glu versus Gln, Lys versus Met). Similarly, mutant enzymes were assayed against homologous P-1 substrates that were most sterically similar but differed in charge (Table XIV).

Substrate in series [2]: C[C@H](NC(=O)CCC(=O)O)C(=O)N[C@@H](C)C(=O)N1CCC[C@H]1C(=O)N[C@@H](CCCCN)C(=O)Nc1ccc([N+](=O)[O-])cc1
The series is described as above. To be noted: other: Table XIV, 156 Gln / 166 Lys; value in parentheses; synthetic substrate with label as P-1 amino acid.
Source text: as §1, §2, §3, §4

Substrate in series [3]: C[C@H](NC(=O)CCC(=O)O)C(=O)N[C@@H](C)C(=O)N1CCC[C@H]1C(=O)N[C@@H](Cc1ccccc1)C(=O)Nc1ccc([N+](=O)[O-])cc1
Described as above. The note with it: other: Table XIII, Q156/K166; synthetic substrate with label as P-1 residue.
Source text: as §1, §2, §3, §4

Substrate in series [4]: C[C@H](NC(=O)CCC(=O)O)C(=O)N[C@@H](C)C(=O)N1CCC[C@H]1C(=O)N[C@@H](CCC(N)=O)C(=O)Nc1ccc([N+](=O)[O-])cc1
The description is as above. The note with it: other: Table XIV, 156 Gln / 166 Lys; value in parentheses; synthetic substrate with label as P-1 amino acid.
Source text: as §1, §2, §3, §4

Substrate in series [5]: CSCC[C@H](NC(=O)[C@@H]1CCCN1C(=O)[C@H](C)NC(=O)[C@H](C)NC(=O)CCC(=O)O)C(=O)Nc1ccc([N+](=O)[O-])cc1
The series is described as above. The note with it: other: Table XIV, 156 Gln / 166 Lys; value in parentheses; synthetic substrate with label as P-1 amino acid.
Source text: as §1, §2, §3, §4

Substrate in series [6]: C[C@H](NC(=O)CCC(=O)O)C(=O)N[C@@H](C)C(=O)N1CCC[C@H]1C(=O)N[C@@H](CCC(=O)O)C(=O)Nc1ccc([N+](=O)[O-])cc1
Description: Kinetics of p-nitroanilide substrate hydrolysis, S156/K166.
Source text: as §1, §2, §3, §4

Substrate in series [7]: C[C@H](NC(=O)CCC(=O)O)C(=O)N[C@@H](C)C(=O)N1CCC[C@H]1C(=O)N[C@@H](CCCCN)C(=O)Nc1ccc([N+](=O)[O-])cc1
Described as above. To be noted: other: Table XIV, 156 Ser / 166 Lys; value in parentheses; synthetic substrate with label as P-1 amino acid.
Source text: as §1, §2, §3, §4

Substrate in series [8]: C[C@H](NC(=O)CCC(=O)O)C(=O)N[C@@H](C)C(=O)N1CCC[C@H]1C(=O)N[C@@H](Cc1ccccc1)C(=O)Nc1ccc([N+](=O)[O-])cc1
Described as above. To be noted: other: Table XIII, S156/K166; synthetic substrate with label as P-1 residue.
Source text: as §1, §2, §3, §4

Substrate in series [9]: C[C@H](NC(=O)CCC(=O)O)C(=O)N[C@@H](C)C(=O)N1CCC[C@H]1C(=O)N[C@@H](CCC(N)=O)C(=O)Nc1ccc([N+](=O)[O-])cc1
Described as above. The note with it: other: Table XIV, 156 Ser / 166 Lys; value in parentheses; synthetic substrate with label as P-1 amino acid.
Source text: as §1, §2, §3, §4

Substrate in series [10]: CSCC[C@H](NC(=O)[C@@H]1CCCN1C(=O)[C@H](C)NC(=O)[C@H](C)NC(=O)CCC(=O)O)C(=O)Nc1ccc([N+](=O)[O-])cc1
The series is described as above. To be noted: other: Table XIV, 156 Ser / 166 Lys; value in parentheses; synthetic substrate with label as P-1 amino acid.
Source text: as §1, §2, §3, §4

Substrate in series [11]: C[C@H](NC(=O)CCC(=O)O)C(=O)N[C@@H](C)C(=O)N1CCC[C@H]1C(=O)N[C@@H](CCCCN)C(=O)Nc1ccc([N+](=O)[O-])cc1
Description: Kinetics of p-nitroanilide substrate hydrolysis, D166. To be noted: other: Table XIV, 156 Glu / 166 Asp; value in parentheses; synthetic substrate with label as P-1 amino acid.
Source text: as §1
(§5) The construction of subtilisin mutants containing the substitution of the ionic amino acids Asp, Asn, Gln, Lys and Ang are disclosed in EPO Publication No. 0130756. The present example describes the construction of the mutant subtilisin containing Glu at position 166 (E166) and presents substrate specificity data on these mutants. Further data on position 166 and 156 single and double mutants is presented infra.
(§6) Each of these mutants was analyzed with the tetrapeptide substrates, succinyl-L-AlaL-AlaProL-X-p-nitroanilide, where X was Phe, Ala and Glu.

Substrate in series [12]: C[C@H](NC(=O)CCC(=O)O)C(=O)N[C@@H](C)C(=O)N1CCC[C@H]1C(=O)N[C@@H](CCC(N)=O)C(=O)Nc1ccc([N+](=O)[O-])cc1
Described as above. To be noted: other: Table XIV, 156 Glu / 166 Asp; value in parentheses; synthetic substrate with label as P-1 amino acid.
Source text: as §1, §5, §6

Substrate in series [13]: CSCC[C@H](NC(=O)[C@@H]1CCCN1C(=O)[C@H](C)NC(=O)[C@H](C)NC(=O)CCC(=O)O)C(=O)Nc1ccc([N+](=O)[O-])cc1
Described as above. The note with it: other: Table XIV, 156 Glu / 166 Asp; value in parentheses; synthetic substrate with label as P-1 amino acid.
Source text: as §1, §5, §6

Setting [14] is: other: Table XIII, Q156/K166, synthetic substrate with label as P-1 residue.
[15] abbreviates: other: Table XIII, S156/K166, synthetic substrate with label as P-1 residue.

B1: B. amyloliquefaciens subtilisin variant Q156/K166 (Bacillus amyloliquefaciens; E263Q/G273K) (protein)
chain: AQSVPYGVSQIKAPALHSQGYTGSNVKVAVIDSGIDSSHPDLKVAGGASMVPSETNPFQDNNSHGTHVAGTVAALNNSIGVLGVAPSASLYAVKVLGADGSGQYSWIINGIEWAIANNMDVINMSLGGPSGSAALKAAVDKAVASGVVVVAAAGNQGTSGSSSTVKYPGKYPSVIAVGAVDSSNQRASFSSVGPELDVMAPGVSIQSTLPGNKYGAYNGTSMASPHVAGAAALILSKHPNWTNTQVRSSLENTTTKLGDSFYYGKGLINVQAAAQ
notes: at various amino acid residues within the mature form of the subtilisin molecule; made in house
For B1, the Km in series [1] (setting [14]) is 31 µM; in series [1] (other: Table XIV, 156 Gln / 166 Lys, value in parentheses, synthetic substrate with label as P-1 amino acid), 31.6 µM; in series [2] it was 1780 µM; in series [3] it was 19 µM; in series [4], 209 µM; in [5], 20.9 µM. Also, the kcat was found to be 1.60 s-^1 in series [1] (setting [14]) and 30.00 s-^1 in series [3]. Moreover, the kcat/Km in series [1] (setting [14]) worked out at 50000 M⁻¹ s⁻¹; in series [3], 1.6e+06 M⁻¹ s⁻¹.

B2: B. amyloliquefaciens subtilisin variant S156/K166 (Bacillus amyloliquefaciens; E263S/G273K) (protein)
chain: B1 chain with Q156S
notes: as for B1
On to B2, for which the Km was found to be 39 µM in [6] (setting [15]); 39.8 µM in series [6] (other: Table XIV, 156 Ser / 166 Lys, value in parentheses, synthetic substrate with label as P-1 amino acid); 1450 µM in [7]; 18 µM in [8]; 115 µM in [9]; 12.6 µM in series [10]. Also, the results for the kcat in series [6] (setting [15]) and in series [8] were 0.60 s-^1 and 30.00 s-^1, respectively. In addition, the catalytic efficiency (kcat/Km) in series [6] (setting [15]) was found to be 16000 M⁻¹ s⁻¹; in series [8] it was 1.6e+06 M⁻¹ s⁻¹.

B3: B. amyloliquefaciens subtilisin variant D166 (Gly166 to Asp) (Bacillus amyloliquefaciens; G273D) (protein)
chain: B1 chain with Q156E, K166D
notes: at various amino acid residues within the mature form of the subtilisin molecule; made in house; host or cells: Bacillus subtilis BG2036
Turning to B3, the Km in [11] came out at 1000 µM; in series [12] it was 2750 µM; in [13] it was 1820 µM.

In general, Km refers to the concentration of substrate that gives half-maximal velocity. A word on the kcat/Km: it is the turnover number divided by the Michaelis constant.
